Legend:
P. renovo [1] = experiment: Formate utilization, HPLC analysis of culture supernatant; assay type: cell-based, Picochlorum renovo; conditions: for formate consumed from the culture media: 25 mM formate, 2% CO2, after 85 hours of cultivation; for formate consumption: 10 mM sodium formate, evaporative losses taken into account
Method: Six μL of filtered cell-free supernatant was used for injection into the Bio-Rad HPX-87H (300×7.8 mm) ion exchange column. Elution of the organic acid was carried out with 0.01 N sulfuric acid at a flow rate of 0.6 mL per min. The column temperature was maintained at 55° C.

P. renovo [2] = experiment: Growth of FDH-expressing P. renovo in media supplemented with formate; assay type: cell-based, Picochlorum renovo; conditions: for growth in media supplemented with formate: 25 mM formate, 2% CO2, pH 6.0; for growth on sodium formate: up to 75 mM sodium formate, 2% CO2, pH=6 Bis-Tris, 5 mM NH4Cl
Method: Cultures were mixed via shaking (170 rpm) at 33° C., 2% CO2, and 125 uE cool white LED lighting.
FDH variants utilized were mutated from the Pseudomonas sp. 101 FDH, specifically NAD+ utilizing variant (A198G) and NADP+ utilizing variant (A198G/D221Q/C255A/H379K/S380V). FDH transformation vectors were prepared by Twist Bioscience, cloning a ribosomal binding site ([…]) and codon optimized FDH downstream of the ptxD selectable marker in our previously described chloroplast transformation vector. P. renovo transformation was carried out as described previously, with the exception that Critter Technology binding and precipitation buffers were used according to the manufacturers recommendations to bind DNA (plasmid prepared by Twist Bioscience) onto the gold microcarriers for biolistic transformation.

B1: NADP+-utilizing FDH variant: Pseudomonas sp. 101 formate dehydrogenase mutant A198G/D221Q/C255A/H379K/S380V, SEQ ID NO: 32, expressed in P. renovo chloroplast (protein)
chain: MSDPTLAQPHLVEVHTTLETVVTTHNHNHRPSINASGEKKKIVGVFYKGNEYAKLNPNFVGCVEGALGIREWLESQGHQYIVTDDKEGPDSELEKHIPDAHVIISTPFHPAYVTAERIKKAQKLELLLTAGIGSDHVDLKAAAAAGLTVAEVTGSNVVSVAEDELMRILILMRNFLPGYHQAVKGEWNVAGIAHRAYDLEGKTVGTVGAGRIGKLLLQRLKPFNCNLLYFDRLRIDPELEKEIGAKFEEDLDAMLPKCDVIVINTPLTEQTRGLFDKNRIAKCKKGVLIVNNARGAIADTQAIADACSSGHVAGYSGDVWDPQPAPKDHPWRYMPNHAMTPHISGTTIDAQLRYAAGVKDMLDRHFKGEDFPEQNYIVKEGQLASQYR
modifications: Pseudomonas sp. 101
- formate consumed from the culture media (P. renovo [1]): no formate utilization
- growth in media supplemented with formate (P. renovo [2]): no growth
- growth in media supplemented with formate (P. renovo [2]; listed as NADP+ utilizing FDH variant): did not grow

B2: NAD+-utilizing FDH variant: Pseudomonas sp. 101 formate dehydrogenase mutant A198G, SEQ ID NO: 30, expressed in P. renovo chloroplast (protein)
chain: MAKVLCVLYDDPVDGYPKTYARDDLPKIDHYPGGQTLPTPKAIDFTPGQLLGSVSGELGLRKYLESNGHTLVVTSDKDGPDSVFERELVDADVVISQPFWPAYLTPERIAKAKNLKLALTAGIGSDHVDLQSAIDRNVTVAEVTYCNSISVAEHVVMMILSLVRNYLPSHEWARKGGWNIADCVSHAYDLEAMHVGTVGAGRIGLAVLRRLAPFDVHLHYTQRHRLPESVEKELNLTWHATREDMYPVCDVVTLNAPLHPETEHMINDETLKLFKRGAYIVNTARGKLCDRDAVARALESGRLAGYAGDVWFPQPAPKDHPWRTMPYNGMTPHISGTTLTAQARYAAGTREILECFFEGRPIRDEYLIVQGGALAGTGAKVYSKGNATGGSEEAAKFKKAV
modifications: Pseudomonas sp. 101
- formate concentration in culture (P. renovo [1]; 5 mM formate added (initial 6.2 mM), ambient CO2 (0.04%), after 312 hours, HPLC): 1.7 mM
- utilization of the added formate (P. renovo [1]; 5 mM formate, ambient CO2 (0.04%), 312 hours): 74+/−2%
- formate consumption (P. renovo [1]; 2% CO2, at 85 hours): 77±2%
- formate consumption (P. renovo [1]; 2% CO2, at 132 hours): 88±1%
- formate consumed from the culture media (P. renovo [1]): 48±1%
- growth when supplemented with formate (P. renovo [2]; 5 mM formate, ambient CO2 (0.04%), versus no formate supplementation): enhanced growth
- optical density relative to wild-type (P. renovo [2]; 5 mM formate, ambient CO2 (0.04%), versus unsupplemented wild-type): > 3.8 ×
- culture density (P. renovo [2]; 10 mM formate compared to 25 mM formate, 2% CO2): higher culture density
- growth in media supplemented with formate (P. renovo [2]): Growth in media supplemented with 25 mM formate was observed

B3: SV26: Candida boidinii FDH (C23S), SEQ ID NO: 14 (protein, listed as Candida boidinii)
chain: MKIVLVLYDAGKHAADEEKLYGSTENKLGIANWLKDQGHELITTSDKEGETSELDKHIPDADIIITTPFHPAYITKERLDKAKNLKLVVVAGVGSDHIDLDYINQTGKKISVLEVTGSNVVSVAEHVVMTMLVLVRNFVPAHEQIINHDWEVAAIAKDAYDIEGKTIATIGAGRIGYRVLERLLPFNPKELLYYDYQALPKEAEEKVGARRVENIEELVAQADIVTVNAPLHAGTKGLINKELLSKFKKGAWLVNTARGAICVAEDVAAALESGQLRGYGGDVWFPQPAPKDHPWRDMRNKYGAGNAMTPHYSGTTLDAQTRYAEGTKNILESFFTGKFDYRPQDIILLNGEYVTKAYGKHDKK
- growth on sodium formate (P. renovo [2]): able to grow

B4: SV27: Candida boidinii FDH (C23S/C262A), SEQ ID NO: 16 (protein, listed as Candida boidinii)
chain: MKIVLVLYDAGKHAADEEKLYGSTENKLGIANWLKDQGHELITTSDKEGETSELDKHIPDADIIITTPFHPAYITKERLDKAKNLKLVVVAGVGSDHIDLDYINQTGKKISVLEVTGSNVVSVAEHVVMTMLVLVRNFVPAHEQIINHDWEVAAIAKDAYDIEGKTIATIGAGRIGYRVLERLLPFNPKELLYYDYQALPKEAEEKVGARRVENIEELVAQADIVTVNAPLHAGTKGLINKELLSKFKKGAWLVNTARGAIAVAEDVAAALESGQLRGYGGDVWFPQPAPKDHPWRDMRNKYGAGNAMTPHYSGTTLDAQTRYAEGTKNILESFFTGKFDYRPQDIILLNGEYVTKAYGKHDKK
- growth on sodium formate (P. renovo [2]): able to grow
